We go through one substance from patent US20040265972A1.

This test concerns the target human TSH receptor stably expressed on Chinese Hamster Ovary (CHO) cells (CHO-hTSHR clone JP09 and clone JP26) (human) (UniProt P16473). Description: cell-based or functional assay.

Regarding “hTSH α4K/TSH-β-CTEP (heterodimer of mutant α4K subunit and human TSH-β subunit fused to the CTEP of hCG) (from UniProt P0DN86 134-165) (ligand)”, the Vmax (cyclic AMP production), fold increase compared to wild type TSH came to 1.5 fold; the in vitro activity, fold over that of the α4K/TSH-β wild type heterodimer lay in the range of 3 to 4 fold; the potency (cyclic AMP production), fold increase compared to wild type TSH was 200 fold.
